The chains are these.
T1: cynomolgus RSPO3 (cynomolgus, UniProt A0A2K5UTQ7 22-273)
T1 construct: also called cyno RSPO3
T1 sequence: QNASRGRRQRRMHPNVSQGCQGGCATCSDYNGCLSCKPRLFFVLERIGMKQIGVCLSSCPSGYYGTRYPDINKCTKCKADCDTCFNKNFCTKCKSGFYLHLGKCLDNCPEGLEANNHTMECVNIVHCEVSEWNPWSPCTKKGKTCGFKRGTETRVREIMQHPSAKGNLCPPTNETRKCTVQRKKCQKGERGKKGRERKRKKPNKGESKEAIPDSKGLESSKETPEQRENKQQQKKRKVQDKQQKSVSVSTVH

T2: murine RSPO3 (R&D Systems Cat. No. 4120-RS/CF) (murine, UniProt Q2TJ95 22-277, limits assumed)
T2 construct: also called mouse RSPO3
T2 sequence (looked up): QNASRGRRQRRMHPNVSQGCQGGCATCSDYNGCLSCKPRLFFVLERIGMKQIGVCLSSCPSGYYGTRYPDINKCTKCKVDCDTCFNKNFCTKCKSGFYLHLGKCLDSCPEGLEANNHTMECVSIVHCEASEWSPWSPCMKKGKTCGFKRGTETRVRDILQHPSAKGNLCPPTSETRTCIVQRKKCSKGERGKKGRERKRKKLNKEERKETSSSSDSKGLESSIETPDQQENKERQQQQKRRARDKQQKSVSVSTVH

T3: human RSPO3 (human, UniProt Q9BXY4 22-272)
T3 construct: Recombinant human RSPO3 protein (Genentech); also called huRSPO3; hRSPO3
T3 sequence: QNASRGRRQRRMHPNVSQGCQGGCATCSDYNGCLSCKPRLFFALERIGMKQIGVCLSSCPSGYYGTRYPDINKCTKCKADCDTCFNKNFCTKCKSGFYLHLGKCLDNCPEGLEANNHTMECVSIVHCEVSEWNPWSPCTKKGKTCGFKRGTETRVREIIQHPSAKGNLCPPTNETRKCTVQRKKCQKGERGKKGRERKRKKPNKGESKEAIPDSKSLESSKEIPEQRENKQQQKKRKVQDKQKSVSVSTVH

B1: anti-RSPO3 antibody 5D6 (WO2015/058132) (antibody, V domains shown)
VH: EVQLQESGPSLVKPSQTLSLTCSVTGDSITSGYWNWIRKFPGNKFEYMGYISYSGKTYQNPSLKSRISITRDTSKNQYHLQLNSVTTEDTATYYCATYYGYGGPWFAYWGQGTLVTVSA
VL: DIVLTQSPSSMYASLGERVTITCKASQDIDSYLSWFQQKPGKSPKTLIYLTNRLVDGVPSRFSGSGSGQDYSLTISSLEYEDMGIYYCLHYDEFPLTFGAGTKLEIK
B2: chimeric 4A6 (antibody, V domains shown)
VH: EVQLVESGGGSVQPGRSLKVSCAASGFTFSDYDMAWVRQAPKKGLEWVATIIYDGSRTYYRDSVKGRFTLSRDNTKSTLCLQMDSLRSEDTATYYCAAHDRSFDYWGQGIMVTVSS
VL: DIQMTQSPASLSASLGETVSIECLASEDISNDLVWYQQKSGKSPQLLIYAASRLQDGVPSRFSGSGFGTRFSLKISGMQPEDEADYFCQQSYKYLPTFGAGTKLGLK
notes: Chimeric counterpart of hu4A6 with the rat 4A6 variable domains
B3: chimeric 15F3 (antibody, V domains shown)
VH: B2 VH with S11L, V20L, T58A, Y60F, R61G, K65R, L70V, C80Y, A97T, I110V
VL: B2 VL with A25V, L33F, F67S, K74R, D85E, L95P, G105E
notes: Chimeric counterpart with the rat 15F3 variable domains
B4: chimeric 11C10 (antibody, V domains shown)
VH: B2 VH with S11L, V20L, L70I, D73A, T75A, C80Y, A98T, R101K, S102T, I110V
VL: DIQMTQSPASLSASLGETVTIECRASEDIYSDLAWYQQKPGNSPQLLIYDVNSLIHGVPSRFSGSGSGTQFSLKINNLQSEDVASYFCQQYDNYPNTFGAGTKLELK
notes: Chimeric counterpart with the rat 11C10 variable domains
B5: hu4A6.L4H2 (antibody, V domains shown)
VH: EVQLVESGGGVVQPGRSLRLSCAASGFTFSDYDMAWVRQAPGKGLEWVATIIYDGSRTYYRDSVKGRFTISRDNSKNTLYLQMNSLRAEDTAVYYCAAHDRSFDYWGQGTMVTVSS
VL: DIQMTQSPSSLSASVGDRVTITCLASEDISNDLVWYQQKPGKAPKLLIYAASRLQDGVPSRFSGSGFGTDFTLTISSLQPEDFATYYCQQSYKYLPTFGQGTKLEIK
notes: CDR graft only (L4, H2); also called humanized 4A6
B6: hu11C10.L5H1 (antibody, V domains shown)
VH: B5 VH with A98T, R101K, S102T
VL: DIQLTQSPSSLSASVGDRVTITCRASEDIYSDLAWYQQKPGKAPKLLIYDVNSLIHGVPSRFSGSGSGTDFTLTISSLQPEDFATYYCQQYDNYPNTFGQGTKLEIK
notes: CDR graft light chain L5 with H1; also called humanized 11C10
B7: hu15F3.L4H2 (antibody, V domains shown)
VH: B5 VH with T58A, Y60F, R61G, K65R, A97T
VL: B5 VL with A25V, L33F, F67S, L95P
notes: CDR graft only (L4, H2); also called humanized 15F3

Positions count from the first letter of the chain named.

As usually defined, the Kd is the concentration at which binding is half-saturated. A lower Kd goes with higher affinity. One may read the koff as the first-order rate constant of dissociation. The low end stands for slow dissociation, the high end for fast dissociation. For orientation: kon means the rate constant with which the complex forms. Higher therefore signals faster complex formation.

The first experiment deals with T1, cynomolgus RSPO3. Briefly: SPR (BIAcore T200), RSPO3 immobilized, antibody injected, 25 C, 1:1 Langmuir. On the technique in general: Surface plasmon resonance follows binding to a sensor surface in real time, without labels.
The molecule B1 had a dissociation constant Kd of 0.697 nM, a koff of 0.000321 s⁻¹ and a kon of 461000 M⁻¹ s⁻¹.
Taken in the same sequence, the figures for B2 were 0.174 nM, 3.36e-05 s⁻¹ and 194000 M⁻¹ s⁻¹.
Regarding B3, binding was characterised by a dissociation constant (Kd) of 0.576 nM, the koff is 0.000121 s⁻¹ and the kon was 210000 M⁻¹ s⁻¹.
In turn, B4 came in with a Kd of 1.52 nM, a koff of 0.000963 s⁻¹ and a kon of 633000 M⁻¹ s⁻¹.
In turn, B5 gave a Kd of 0.247 nM, a koff of 5.95e-05 s⁻¹ and a kon of 241000 M⁻¹ s⁻¹.
The matching figures for B6: 1.75 nM, 0.00121 s⁻¹ and 695000 M⁻¹ s⁻¹.
Taken in the same sequence, the figures for B7 were 0.466 nM, 0.000116 s⁻¹ and 248000 M⁻¹ s⁻¹.

Another experiment deals with T2, murine RSPO3 (R&D Systems Cat. No. …). The experiment is described as above.
For B1, binding was put at a Kd of 0.913 nM, the koff is 0.000326 s⁻¹ and the kon was found to be 357000 M⁻¹ s⁻¹.
Taken in the same sequence, the figures for B2 were 0.337 nM, 5.22e-05 s⁻¹ and 155000 M⁻¹ s⁻¹.
B3 yielded a Kd of 0.926 nM, a koff of 0.000156 s⁻¹ and a kon of 169000 M⁻¹ s⁻¹.
Taken in the same sequence, the figures for B4 were 2.76 nM, 0.00107 s⁻¹ and 388000 M⁻¹ s⁻¹.
Taken in the same sequence, the figures for B5 were 0.441 nM, 8.08e-05 s⁻¹ and 183000 M⁻¹ s⁻¹.
Taken in the same sequence, the figures for B6 were 3.22 nM, 0.00138 s⁻¹ and 429000 M⁻¹ s⁻¹.
For B7, binding was characterised by a dissociation constant (Kd) of 0.775 nM, the koff amounted to 0.000147 s⁻¹ and the kon is 190000 M⁻¹ s⁻¹.

The next experiment deals with T3, human RSPO3. The experiment is described as above.
Molecule B1 had a Kd of 0.485 nM, a koff of 0.000127 s⁻¹ and a kon of 261000 M⁻¹ s⁻¹.
The matching figures for B2: 0.363 nM, 5.85e-05 s⁻¹ and 161000 M⁻¹ s⁻¹.
Taken in the same sequence, the figures for B3 were 0.845 nM, 0.000151 s⁻¹ and 179000 M⁻¹ s⁻¹.
In turn, B4 returned a Kd of 2.67 nM, a koff of 0.00113 s⁻¹ and a kon of 425000 M⁻¹ s⁻¹.
Taken in the same sequence, the figures for B5 were 0.434 nM, 8.47e-05 s⁻¹ and 195000 M⁻¹ s⁻¹.
Taken in the same sequence, the figures for B6 were 3.01 nM, 0.00145 s⁻¹ and 480000 M⁻¹ s⁻¹.
Taken in the same sequence, the figures for B7 were 0.839 nM, 0.000164 s⁻¹ and 196000 M⁻¹ s⁻¹.

The record behind these values is patent US20170319688A1 (Genentech, published 2017).
